This note sets out measurements from PMC2965767, “Identification and Genome-Wide Prediction of DNA Binding Specificities for the ApiAP2 Family of Regulators from the Malaria Parasite”.

For data set [1], the target named is T1, PF10_0075 D3ext (PF3D7_1007700, AP2 domain transcription factor AP2-I) (Plasmodium falciparum) (UniProt Q8IJW6).
T1 sequence: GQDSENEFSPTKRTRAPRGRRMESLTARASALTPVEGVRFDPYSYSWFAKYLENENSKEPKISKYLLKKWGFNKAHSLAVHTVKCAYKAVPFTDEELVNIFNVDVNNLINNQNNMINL
Conditions: PBM; highest protein concentration obtained; buffer not given; scale: PBM E-score of the seed 8-mer.

The target in data set [2] is T2, PFD0985w D2ext (ApiAP2) (Plasmodium falciparum) (UniProt Q8I1N6).
T2 sequence: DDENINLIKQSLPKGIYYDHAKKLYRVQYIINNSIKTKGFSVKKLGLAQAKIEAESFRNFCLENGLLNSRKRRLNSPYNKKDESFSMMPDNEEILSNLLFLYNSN
The note with it: PBM; highest protein concentration obtained; buffer not given; scale: PBM E-score of the seed 8-mer.

The target in data set [3] is T3, PF10_0075 D1ext (PF3D7_1007700, AP2 domain transcription factor AP2-I) (Plasmodium falciparum) (UniProt Q8IJW6).
T3 sequence: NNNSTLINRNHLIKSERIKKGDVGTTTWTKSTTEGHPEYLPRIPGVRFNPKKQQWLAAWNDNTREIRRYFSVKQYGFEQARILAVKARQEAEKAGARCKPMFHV
Conditions: PBM; highest protein concentration obtained; buffer not given; scale: PBM E-score of the seed 8-mer.

For data set [4], the target named is T4, PF13_0097 D1 (PF3D7_1317200, AP2 domain transcription factor AP2-FG, putative) (Plasmodium falciparum) (UniProt Q8IEE4).
T4 sequence: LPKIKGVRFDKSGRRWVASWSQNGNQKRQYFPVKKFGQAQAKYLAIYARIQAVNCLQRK
The note with it: PBM; highest protein concentration obtained; buffer not given; scale: PBM E-score of the seed 8-mer.

For data set [5], the target named is T5, PF14_0533 D1 (PF3D7_1456000, AP2 domain transcription factor, putative) (Plasmodium falciparum) (UniProt Q8IKR9).
T5 sequence: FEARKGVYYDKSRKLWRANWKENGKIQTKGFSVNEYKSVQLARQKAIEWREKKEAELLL
The note with it: PBM; highest protein concentration obtained; buffer not given; scale: PBM E-score of the seed 8-mer.

The target of data set [6] is T6, PFL1085w D1ext (PF3D7_1222600, AP2 domain transcription factor AP2-G) (Plasmodium falciparum) (UniProt Q8I5I9).
T6 sequence: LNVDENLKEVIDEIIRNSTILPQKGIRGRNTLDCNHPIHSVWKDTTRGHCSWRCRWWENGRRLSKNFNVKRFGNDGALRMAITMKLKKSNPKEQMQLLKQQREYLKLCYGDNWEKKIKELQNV
Conditions: PBM; highest protein concentration obtained; buffer not given; scale: PBM E-score of the seed 8-mer.

Data set [7] has as its target T7, PFL1075w D1 (PF3D7_1222400, AP2 domain transcription factor) (Plasmodium falciparum) (UniProt Q8I5J1).
T7 sequence: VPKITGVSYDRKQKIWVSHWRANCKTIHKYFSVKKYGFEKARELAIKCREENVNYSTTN
The note with it: PBM; highest protein concentration obtained; buffer not given; scale: PBM E-score of the seed 8-mer.

Data set [8] concerns the target T8, PFF0670w D2ext (PF3D7_0613800, AP2 domain transcription factor, putative) (Plasmodium falciparum) (UniProt C6KSY0).
T8 sequence: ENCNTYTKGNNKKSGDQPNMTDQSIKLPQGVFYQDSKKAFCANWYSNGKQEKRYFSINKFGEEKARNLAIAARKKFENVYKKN
Conditions: PBM; highest protein concentration obtained; buffer not given; scale: PBM E-score of the seed 8-mer.

Data set [9] addresses T9, PF13_0267 D1 (PF3D7_1350900, AP2 domain transcription factor AP2-O4, putative) (Plasmodium falciparum) (UniProt A0A5K1K8Z4).
T9 sequence: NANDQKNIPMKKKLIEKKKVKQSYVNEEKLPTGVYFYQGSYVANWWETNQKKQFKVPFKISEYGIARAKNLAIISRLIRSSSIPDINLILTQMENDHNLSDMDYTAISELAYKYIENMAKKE
The note with it: PBM; highest protein concentration obtained; buffer not given; scale: PBM E-score of the seed 8-mer.

Data set [10] has as its target T10, PF14_0633 D1 (PF3D7_1466400, AP2 domain transcription factor AP2-EXP) (Plasmodium falciparum) (UniProt Q8IKH2).
T10 sequence: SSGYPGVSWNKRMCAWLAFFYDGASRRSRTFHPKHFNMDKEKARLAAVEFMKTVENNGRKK
Conditions: PBM; highest protein concentration obtained; buffer not given; scale: PBM E-score of the seed 8-mer.

For data set [11], the target named is T11, PFL1900w DLD (PF3D7_1239200, AP2 domain transcription factor, putative) (Plasmodium falciparum) (UniProt Q8I531).
T11 sequence: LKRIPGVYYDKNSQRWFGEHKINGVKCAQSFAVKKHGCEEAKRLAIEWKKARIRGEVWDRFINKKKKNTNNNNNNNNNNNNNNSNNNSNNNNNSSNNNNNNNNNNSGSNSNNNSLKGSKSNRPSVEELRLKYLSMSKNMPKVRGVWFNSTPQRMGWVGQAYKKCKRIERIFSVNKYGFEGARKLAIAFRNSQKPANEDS
Conditions: PBM; highest protein concentration obtained; buffer not given; scale: PBM E-score of the seed 8-mer.

Data set [12] deals with T12, PFF0200c D1 (PF3D7_0604100, AP2 domain transcription factor) (Plasmodium falciparum) (UniProt C6KSN9).
T12 sequence: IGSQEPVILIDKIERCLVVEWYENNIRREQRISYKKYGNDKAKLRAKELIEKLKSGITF
Conditions: PBM; highest protein concentration obtained; buffer not given; scale: PBM E-score of the seed 8-mer.

The target of a further data set is T13, PFD0985w D2ext (ApiAP2) (Plasmodium falciparum, UniProt Q8I1N6 3258-3362).
T13 sequence: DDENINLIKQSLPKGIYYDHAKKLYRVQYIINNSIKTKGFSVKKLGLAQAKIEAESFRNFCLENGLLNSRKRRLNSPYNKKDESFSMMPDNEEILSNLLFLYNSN
Nature of the data set: EMSA; 5 mM MgCl2 with 10 mM EDTA; LightShift buffer, 2.5% glycerol, 50 mM KCl, 0.05% NP-40, 50 ng/uL poly(dI-dC); room temperature, 20 min. Conditions: tags: N-terminal GST (pGEX-4T1), kept; label: 5' biotin.

In data set [13] the target is PF10_0075 D3ext (PF3D7_1007700, AP2 domain transcription factor AP2-I) (Plasmodium falciparum, UniProt Q8IJW6 910-1027). The description is as above. The note with it: tags: N-terminal GST (pGEX-4T1), kept; label: 5' biotin.

Take “GTGCACTA (double strand) [PF10_0075_D3 primary motif]”: the binding signal in data set [1] is 0.496. “CCACACAC (double strand) [PFD0985w_D2 Secondary motif 3]” returned a binding signal in data set [2] of over 0.45.

In turn, “TCGGKGCA / TGCMCCGA [PF10_0075_D1 Secondary motif 1]” returned a binding signal in data set [3] of over 0.45. Same read-out and setting: in the case of “GTCGCGAC (double strand) [PF10_0075_D1 Secondary motif 3]” it was over 0.45. As for “TCACYCAR / YTGRGTGA [PF13_0097 Secondary motif 3]”, the binding signal in data set [4] was over 0.45. Consider “GGGTCGACCC (double strand) [PF10_0075_D1 primary motif]”, for which the binding signal in data set [3] came out at 0.495.

Molecule “CACACACAC (double strand) [PF14_0533 primary motif]” registered a binding signal in data set [5] of 0.5.

Molecule “GGTTCCGA (double strand) [PF10_0075_D1 Secondary motif 5]” yielded a binding signal in data set [3] of over 0.45. Regarding “GTGTAC (double strand) [PFL1085w primary motif]”, in data set [6], the binding signal is 0.49. Regarding “CTGTATAA (double strand) [PFL1075w Secondary motif 2]”, the binding signal in [7] was over 0.45. Same read-out and setting: the value for “TATATAGC (double strand) [PFL1075w Secondary motif 1]” was over 0.45. On to “ACCTAGGT (double strand) [PFF0670w_D2 Secondary motif 1]”, for which the binding signal in data set [8] was over 0.45. Consider “ACCTAA (double strand) [PF13_0267 Secondary motif 2]”, for which, in [9], the binding signal was over 0.45. In [10], “GCATGC (double strand) [PF14_0633 primary motif]” showed a binding signal of 0.5. With “TCTACAA (double strand) [PFL1900w_DLD primary motif]”, the binding signal in data set [11] stood at 0.468.

With “AAGATCTT (double strand) [PFF0670w_D2 Secondary motif 2]”, the binding signal in data set [8] is over 0.45. In the case of “WGTGCACTRNA / TNYAGTGCACW [PFF0200c_D1 Secondary motif 3]”, the binding signal in data set [12] is over 0.45. For “RGGTCGTTA / TAACGACCY [PF10_0075_D1 Secondary motif 2]”, the binding signal in data set [3] is over 0.45.

“GTGTGCA (double strand) [PF14_0533 Secondary motif 1]”: the binding signal in data set [5] is over 0.45.

The molecule “GTGCAA (double strand) [PF10_0075_D3 Secondary motif 4]” came in with a binding signal in [1] of over 0.45. With “GTGYNYACAC / GTGTRNRCAC [PFD0985w_D2 Secondary motif 2]”, the binding signal in [2] is over 0.45. As to “GTGGTC (double strand) [PFL1085w Secondary motif 2]”, the binding signal in data set [6] was over 0.45. The molecule “TGCTCAA (double strand) [PF13_0097 Secondary motif 1]” gave a binding signal in data set [4] of over 0.45. Molecule “MCGCACCC / GGGTGCGK [PFF0200c_D1 Secondary motif 2]” yielded a binding signal in data set [12] of over 0.45. “TGATCM / KGATCA [PF13_0097 Secondary motif 2]” returned a binding signal in data set [4] of over 0.45. Turning to “ACRACATC / GATGTYGT [PFL1900w_DLD Secondary motif 1]”, in data set [11], the binding signal is over 0.45. In turn, “ACCGCGGT (double strand) [PFL1900w_DLD Secondary motif 2]” yielded a binding signal in [11] of over 0.45. Turning to “GTGTTACAC (double strand) [PFD0985w_D2 primary motif]”, the binding signal in data set [2] worked out at 0.496. As to “ATATGCAC (double strand) [PF10_0075_D3 Secondary motif 3]”, the binding signal in [1] was over 0.45. The molecule “CMTGCACCMC / GKGGTGCAKG [PFF0200c_D1 Secondary motif 1]” registered a binding signal in data set [12] of over 0.45. “CTANTAG (double strand) [PF13_0267 Secondary motif 1]”: the binding signal in data set [9] is over 0.45. Regarding “ATTCTAGAA (double strand) [PF13_0267 primary motif]”, in [9], the binding signal was found to be 0.479.

For “CTCTAGAG (double strand) [PFF0670w_D2 primary motif]”, the binding signal in data set [8] turned out to be 0.495. In data set [2], “WATTWCAC (double strand) [PFD0985w_D2 Secondary motif 1]” came in with a binding signal of over 0.45. “GTGCGCAC (double strand) [PF10_0075_D3 Secondary motif 1]”: the binding signal in data set [1] is over 0.45. In the case of “GTACTACT (double strand) [PFL1085w Secondary motif 1]”, the binding signal in [6] was over 0.45. As to “TATATATA (double strand) [PFL1075w primary motif]”, in [7], the binding signal came out at 0.499. For “GTGCGKTA / TAMCGCAC [PF10_0075_D3 Secondary motif 2]”, the binding signal in [1] is over 0.45. The molecule “AGCTCAGA (double strand) [PF13_0097 primary motif]” had a binding signal in data set [4] of 0.489.

B1: No motif (dsDNA)
DNA 1: AATATTATAATAGTCGTAGCCATCAATAAAAAAAAATGGTAATATAGATTTTCGTTTATATT
DNA 2: AATATAAACGAAAATCTATATTACCATTTTTTTTTATTGATGGCTACGACTATTATAATATT
B1: in the data set with PFD0985w D2ext (ApiAP2), the binding result is on record as “no binding”.

B2: PFD0985w_D2-1 (motif rank) (dsDNA)
DNA 1: AATATTATAATAGTCGTAGCCATCAATGTGTAACACATGGTAATATAGATTTTCGTTTATATT
DNA 2: AATATAAACGAAAATCTATATTACCATGTGTTACACATTGATGGCTACGACTATTATAATATT
B2: the binding result with PFD0985w D2ext (ApiAP2) is recorded as “binds”.

B3: PFD0985w_D2-2 (motif rank) (dsDNA)
DNA 1: AATATTATAATAGTCGTAGCCATCAATCCACACACCATGGTAATATAGATTTTCGTTTATATT
DNA 2: AATATAAACGAAAATCTATATTACCATGGTGTGTGGATTGATGGCTACGACTATTATAATATT
For B3, the binding result with PFD0985w D2ext (ApiAP2) is “binds”.

B4: msp1 (dsDNA)
DNA 1: AAATTGTGTAAATTCATATTCGATAAAGTGCATTAATTTTATTTATCAATTGTAAACATA
DNA 2: TATGTTTACAATTGATAAATAAAATTAATGCACTTTATCGAATATGAATTTACACAATTT
As for B4, the binding result in data set [13] is on record as “binds”.

B5: msp10 (dsDNA)
DNA 1: TCAACAATTATTATATAATTAATTAGAAGTGCATTAGGTAACAACTGTCGAATAAATATAT
DNA 2: ATATATTTATTCGACAGTTGTTACCTAATGCACTTCTAATTAATTATATAATAATTGTTGA
For the molecule B5, the binding result in data set [13] was “binds”.

B6: rhopH3 (dsDNA)
DNA 1: ATTAATTTAATATGTACGCAAGGTGCACACTGGTGCATTAAAAAAAAAATATATATTAAT
DNA 2: ATTAATATATATTTTTTTTTTAATGCACCAGTGTGCACCTTGCGTACATATTAAATTAAT
On to B6, for which the binding result in data set [13] is on record as “binds”.
